From US20180187179
Changes are numbered by the printed parent chain. Names and notes keep the numbering of the source.

T1: β-casein, P02666
T1 chain: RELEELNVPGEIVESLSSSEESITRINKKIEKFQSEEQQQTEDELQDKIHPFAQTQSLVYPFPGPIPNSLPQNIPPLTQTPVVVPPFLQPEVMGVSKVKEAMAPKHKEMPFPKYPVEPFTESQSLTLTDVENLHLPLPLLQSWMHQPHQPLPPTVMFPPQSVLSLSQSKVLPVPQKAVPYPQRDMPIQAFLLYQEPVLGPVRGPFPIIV

B1: camel chymosin variant 293 (Y190A+N100Q+N291Q) (protein)
chain: GKVAREPLTSYLDSQYFGKIYIGTPPQEFTVVFDTGSSDLWVPSIYCKSNVCKNHHRFDPRKSSTFRNLGKPLSIHYGTGSMEGFLGYDTVTVSNIVDPQQTVGLSTEQPGEVFTYSEFDGILGLAYPSLASEYSVPVFDNMMDRHLVARDLFSVYMDRNGQGSMLTLGAIDPSYYTGSLHWVPVTLQQAWQFTVDSVTINGVAVACVGGCQAILDTGTSVLFGPSSDILKIQMAIGATENRYGEFDVNCGNLRSMPTVVFEINGRDYPLSPSAYTSKDQGFCTSGFQGDQNSELWILGDVFIREYYSVFDRANNRVGLAKAI
B2: camel chymosin variant 296 (S273Y+N100Q+N291Q) (protein)
chain: B1 chain with A190Y, S273Y
B3: camel chymosin variant 305 (S226T+N100Q+N291Q) (protein)
chain: B1 chain with A190Y, S226T
B4: camel chymosin variant 280 (D290L+N100Q+N291Q) (protein)
chain: B1 chain with A190Y, D290L
B5: camel chymosin variant 308 (S273D+N100Q+N291Q) (protein)
chain: B1 chain with A190Y, S273D
B6: camel chymosin variant 285 (R254S+N100Q+N291Q) (protein)
chain: B1 chain with A190Y, R254S
B7: camel chymosin variant 275 (R242Q+N100Q+N291Q) (protein)
chain: B1 chain with A190Y, R242Q
B8: camel chymosin variant 299 (L222I+N100Q+N291Q) (protein)
chain: B1 chain with A190Y, L222I
B9: camel chymosin variant 295 (H76Q+N100Q+N291Q) (protein)
chain: B1 chain with H76Q, A190Y
B10: camel chymosin variant 276 (G289S+N100Q+N291Q) (protein)
chain: B1 chain with A190Y, G289S
B11: camel chymosin variant 270 (V32L+N100Q+N291Q) (protein)
chain: B1 chain with V32L, A190Y
B12: camel chymosin variant 303 (L130I+N100Q+N291Q) (protein)
chain: B1 chain with L130I, A190Y
B13: camel chymosin variant 307 (Y243E+N100Q+N291Q) (protein)
chain: B1 chain with A190Y, Y243E
B14: camel chymosin variant 304 (S132A+N100Q+N291Q) (protein)
chain: B1 chain with S132A, A190Y
B15: camel chymosin variant 286 (R242E+N100Q+N291Q) (protein)
chain: B1 chain with A190Y, R242E
B16: camel chymosin variant 272 (D290E+N100Q+N291Q) (protein)
chain: B1 chain with A190Y, D290E
B17: camel chymosin variant 306 (G251D+N100Q+N291Q) (protein)
chain: B1 chain with A190Y, G251D
B18: camel chymosin variant 283 (F282E+N100Q+N291Q) (protein)
chain: B1 chain with A190Y, F282E
B19: camel chymosin variant 282 (Q280E+N100Q+N291Q) (protein)
chain: B1 chain with A190Y, Q280E

Molecular target: T1, β-casein, P02666
Conditions: scale: % cleavage of non-glycosylated camel chymosin

| Protein | β(193-209): cleavage of β-casein at position 192/193 |
| --- | --- |
| B1 | 28 |
| B2 | 58 |
| B3 | 44 |
| B4 | 58 |
| B5 | 66 |
| B6 | 78 |
| B7 | 74 |
| B8 | 54 |
| B9 | 48 |
| B10 | 51 |
| B11 | 28 |
| B12 | 29 |
| B13 | 62 |
| B14 | 28 |
| B15 | 89 |
| B16 | 60 |
| B17 | 88 |
| B18 | 79 |
| B19 | 85 |
